We go through 1 molecule from article PMC4836650 (RNA, 2016).

The assay has as its target L7Ae (Pyrococcus furiosus, UniProt Q8U160 1-123). As to the kind of experiment: SEC. A general note: In gel filtration, larger molecules generally elute earlier.

B1: Nop5 (L148K, V223E) (natural protein)
chain: MKAFISENVRGIYAFDENGNLIEKRYFTDKPEKVLDQLLKGEITKDLEELLNSLKEKGYDEFVFEHPELSRRAKELGFSATTEFPNIAGERLRSNPEEFLGENWFEEYYKVGVALTRMRIQEQSGARDKMVIQAIEALDDVDKVINLKVARLREWYSLHFPELDELLPKHPQYVAFVKTVGHRDNINEEVLRELGLSEEKIKKILEAKEKTMGAWMDQTDIEEVRQLAEEIDRLYQLRKKLEDYIDRAMDDVAPNLKALVGAKLAARLISLAGGLRELAMMPSSTIQVLGAEKALFRHLRTGAKPPKHGVIYQYPAINRSPWWQRGKIARALAGKLAIAARVDYFSGEYIAEELKKELEARIREIKEKYPKPPKRKREERKGKKPWKKDKKKKKKKEKPRRR
For B1, the binding result is listed as “binds”.
